Laboratory results: article PMC9709071, “A stable, engineered TL1A ligand co-stimulates T cells via specific binding to DR3” (Scientific Reports, 2022)

T1: DcR3 (TNFRSF6B) (UniProt O95407 30-300)
T1 construct: soluble decoy receptor DcR3 (TNFRSF6B); the catalogue product is, as I recall, an Fc chimera; the SPR methods name capture by goat anti-human-Fc; also called decoy receptor DcR3; recombinant DcR3 protein
T1 sequence (looked up): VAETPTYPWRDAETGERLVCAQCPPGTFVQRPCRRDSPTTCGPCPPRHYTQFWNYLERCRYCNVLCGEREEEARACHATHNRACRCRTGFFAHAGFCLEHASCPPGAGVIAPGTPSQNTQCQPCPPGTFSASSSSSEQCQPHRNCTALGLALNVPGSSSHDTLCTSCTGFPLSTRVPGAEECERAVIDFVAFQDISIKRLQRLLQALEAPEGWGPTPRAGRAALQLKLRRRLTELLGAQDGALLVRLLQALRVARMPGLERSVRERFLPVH

B1: His-TL1A (TL1W2) (ligand, human, UniProt O95150 1-251, looked up)
chain: VYAPLRADGDKPRAHLTVVRQTPTQHFKNQFPALHWEHELGLAFTKNRMNYTNKFLLIPESGDYFIYSQVTFRGMTSECSEIRQAGRPNKPDSITVVITKVTDSYPEPTQLLMGTKSVCEVGSNWFQPIYLGAMFSLQEGDKLMVNVSDISLVDYTKEDKTFFGAFLL
notes: TL1A (TNFSF15), human; C-terminal extracellular domain comprising the TNF homology domain; non-covalent trimer; also called wild-type TL1A; source: Expi293 cells, transfected, purified (Ni-NTA, preparative gel filtration)
B2: Fc-TL1A (TL1W3) (Fc fusion, human, UniProt O95150 1-251, looked up)
chain: VYAPLRADGDKPRAHLTVVRQTPTQHFKNQFPALHWEHELGLAFTKNRMNYTNKFLLIPESGDYFIYSQVTFRGMTSECSEIRQAGRPNKPDSITVVITKVTDSYPEPTQLLMGTKSVCEVGSNWFQPIYLGAMFSLQEGDKLMVNVSDISLVDYTKEDKTFFGAFLL
notes: TL1A (TNFSF15), human; C-terminal extracellular domain comprising the TNF homology domain; 3:2 ratio of Fc:TL1A trimers; also called Fc-TL1A W3; source: Expi293 cells, transfected, purified (mAbSelect SuRe, preparative gel filtration); not shown: Fc (IgG1), N-terminal, kept
B3: HSA-TL1A (TL1W9) (ligand, human, UniProt O95150 1-251, looked up)
chain: VYAPLRADGDKPRAHLTVVRQTPTQHFKNQFPALHWEHELGLAFTKNRMNYTNKFLLIPESGDYFIYSQVTFRGMTSECSEIRQAGRPNKPDSITVVITKVTDSYPEPTQLLMGTKSVCEVGSNWFQPIYLGAMFSLQEGDKLMVNVSDISLVDYTKEDKTFFGAFLL
notes: TL1A (TNFSF15), human; C-terminal extracellular domain comprising the TNF homology domain; ratio of HSA to TL1A trimer 3:1; source: Expi293 cells, transfected, purified (Ni-NTA, preparative gel filtration); not shown: HSA (human serum albumin), N-terminal, kept
B4: Recombinant DR3-Fc (Fc fusion, UniProt Q93038 25-199, looked up)
chain: QGGTRSPRCDCAGDFHKKIGLFCCRGCPAGHYLKAPCTEPCGNSTCLVCPQDTFLAWENHHNSECARCQACDEQASQVALENCSAVADTRCGCKPGWFVECQVSQCVSSSPFYCQPCLDCGALHRHTRLLCSRRDTDCGTCLPGFYEHGDGCVSCPTSTLGSCPERCAAVCGWRQ
notes: death receptor 3 (DR3); dimeric MW ~92 kDa as printed; the catalogue product is, as I recall, the human extracellular domain fused to human IgG1 Fc; also called death receptor 3; source: bought: R&D Systems, cat. # 943-D3

Assays:
[1] = biological target: T1, DcR3 (TNFRSF6B); test: ELISA; TL1A variants on DcR3; who was immobilised is not told for DcR3; triplicate; settings: both partners purified
[2] = biological target: the molecule itself; test: SEC; preparative gel filtration after affinity capture, Sepax SRT-C SEC-300, 20 mM sodium phosphate pH 6.8; the main peak is taken as the target oligomer
[3] = biological target: B4; test: ELISA; DR3-Fc immobilised non-specifically on Maxisorp plates (overnight, 4 °C), casein block; TL1A added in 3-fold dilutions, overnight 4 °C; bound TL1A detected with polyclonal rabbit anti-human TL1A-biotin and streptavidin-HRP; concentrations normalised to TL1A trimers; triplicate; settings: both partners purified
[4] = biological target: B2; test: ELISA; reversed format: TL1A molecules immobilised, DR3 titrated; settings: both partners purified
[5] = biological target: B3; test: as above; settings: both partners purified
[6] = biological target: B1; test: as above; settings: both partners purified

| Binder | stoichiometry N [2] | EC50 [3] [nM] | further results |
| --- | --- | --- | --- |
| B1 | 3 | 26.2 | EC50 [1]: 4.6 nM |
| B2 | 6 | – | – |
| B3 | 3 | – | – |
| TL1W328.001 (K111A L123K M158Y Q167A S187L N207F) (Fc fusion, human, TL1A (TNFSF15), human, residues 84-251; first of three units; linker between TL1A units; second unit; third unit; combination mutant in the Fc-scTL1A format; the mutations are written on each of the three TL1A units; source: Expi293 cells, transfected, purified (mAbSelect SuRe); not shown: Fc (IgG1), N-terminal, kept) VYAPLRADGDKPRAHLTVVRQTPTQHFANQFPALHWEHEKGLAFTKNRMNYTNKFLLIPESGDYFIYSQVTFRGYTSECSEIRAAGRPNKPDSITVVITKVTDLYPEPTQLLMGTKSVCEVGSFWFQPIYLGAMFSLQEGDKLMVNVSDISLVDYTKEDKTFFGAFLLGGSGGSGGSVYAPLRADGDKPRAHLTVVRQTPTQHFANQFPALHWEHEKGLAFTKNRMNYTNKFLLIPESGDYFIYSQVTFRGYTSECSEIRAAGRPNKPDSITVVITKVTDLYPEPTQLLMGTKSVCEVGSFWFQPIYLGAMFSLQEGDKLMVNVSDISLVDYTKEDKTFFGAFLLGGSGGSGGSVYAPLRADGDKPRAHLTVVRQTPTQHFANQFPALHWEHEKGLAFTKNRMNYTNKFLLIPESGDYFIYSQVTFRGYTSECSEIRAAGRPNKPDSITVVITKVTDLYPEPTQLLMGTKSVCEVGSFWFQPIYLGAMFSLQEGDKLMVNVSDISLVDYTKEDKTFFGAFLL | – | 8.8 | – |
| TL1W331.001 (K111A L123K Q167A S187L E190F N207F) (Fc fusion, human, TL1A (TNFSF15), human, residues 84-251; first of three units; linker between TL1A units; second unit; third unit; combination mutant in the Fc-scTL1A format; the mutations are written on each of the three TL1A units; also called Fc-scTL1A-AKALFF; Fc-scTL1A AKALFF; source: Expi293 cells, transfected, purified (mAbSelect SuRe); not shown: Fc (IgG1), N-terminal, kept) VYAPLRADGDKPRAHLTVVRQTPTQHFANQFPALHWEHEKGLAFTKNRMNYTNKFLLIPESGDYFIYSQVTFRGMTSECSEIRAAGRPNKPDSITVVITKVTDLYPFPTQLLMGTKSVCEVGSFWFQPIYLGAMFSLQEGDKLMVNVSDISLVDYTKEDKTFFGAFLLGGSGGSGGSVYAPLRADGDKPRAHLTVVRQTPTQHFANQFPALHWEHEKGLAFTKNRMNYTNKFLLIPESGDYFIYSQVTFRGMTSECSEIRAAGRPNKPDSITVVITKVTDLYPFPTQLLMGTKSVCEVGSFWFQPIYLGAMFSLQEGDKLMVNVSDISLVDYTKEDKTFFGAFLLGGSGGSGGSVYAPLRADGDKPRAHLTVVRQTPTQHFANQFPALHWEHEKGLAFTKNRMNYTNKFLLIPESGDYFIYSQVTFRGMTSECSEIRAAGRPNKPDSITVVITKVTDLYPFPTQLLMGTKSVCEVGSFWFQPIYLGAMFSLQEGDKLMVNVSDISLVDYTKEDKTFFGAFLL | – | 9 | – |
| TL1W327.001 (K111A L123K M158Y Q167A S187L E190F) (Fc fusion, human, TL1A (TNFSF15), human, residues 84-251; first of three units; linker between TL1A units; second unit; third unit; combination mutant in the Fc-scTL1A format; the mutations are written on each of the three TL1A units; also called AKYALF190; source: Expi293 cells, transfected, purified (mAbSelect SuRe); not shown: Fc (IgG1), N-terminal, kept) VYAPLRADGDKPRAHLTVVRQTPTQHFANQFPALHWEHEKGLAFTKNRMNYTNKFLLIPESGDYFIYSQVTFRGYTSECSEIRAAGRPNKPDSITVVITKVTDLYPFPTQLLMGTKSVCEVGSNWFQPIYLGAMFSLQEGDKLMVNVSDISLVDYTKEDKTFFGAFLLGGSGGSGGSVYAPLRADGDKPRAHLTVVRQTPTQHFANQFPALHWEHEKGLAFTKNRMNYTNKFLLIPESGDYFIYSQVTFRGYTSECSEIRAAGRPNKPDSITVVITKVTDLYPFPTQLLMGTKSVCEVGSNWFQPIYLGAMFSLQEGDKLMVNVSDISLVDYTKEDKTFFGAFLLGGSGGSGGSVYAPLRADGDKPRAHLTVVRQTPTQHFANQFPALHWEHEKGLAFTKNRMNYTNKFLLIPESGDYFIYSQVTFRGYTSECSEIRAAGRPNKPDSITVVITKVTDLYPFPTQLLMGTKSVCEVGSNWFQPIYLGAMFSLQEGDKLMVNVSDISLVDYTKEDKTFFGAFLL | – | 37.5 | – |
| TL1W329.001 (K111A L123K M158Y Q167A E190F N207F) (Fc fusion, human, TL1A (TNFSF15), human, residues 84-251; first of three units; linker between TL1A units; second unit; third unit; combination mutant in the Fc-scTL1A format; the mutations are written on each of the three TL1A units; source: Expi293 cells, transfected, purified (mAbSelect SuRe); not shown: Fc (IgG1), N-terminal, kept) VYAPLRADGDKPRAHLTVVRQTPTQHFANQFPALHWEHEKGLAFTKNRMNYTNKFLLIPESGDYFIYSQVTFRGYTSECSEIRAAGRPNKPDSITVVITKVTDSYPFPTQLLMGTKSVCEVGSFWFQPIYLGAMFSLQEGDKLMVNVSDISLVDYTKEDKTFFGAFLLGGSGGSGGSVYAPLRADGDKPRAHLTVVRQTPTQHFANQFPALHWEHEKGLAFTKNRMNYTNKFLLIPESGDYFIYSQVTFRGYTSECSEIRAAGRPNKPDSITVVITKVTDSYPFPTQLLMGTKSVCEVGSFWFQPIYLGAMFSLQEGDKLMVNVSDISLVDYTKEDKTFFGAFLLGGSGGSGGSVYAPLRADGDKPRAHLTVVRQTPTQHFANQFPALHWEHEKGLAFTKNRMNYTNKFLLIPESGDYFIYSQVTFRGYTSECSEIRAAGRPNKPDSITVVITKVTDSYPFPTQLLMGTKSVCEVGSFWFQPIYLGAMFSLQEGDKLMVNVSDISLVDYTKEDKTFFGAFLL | – | 8.7 | – |
| B4 | – | – | EC50 [4]: 2.6 nM; EC50 [5]: > 4000 nM; EC50 [6]: 2.5 nM |
